To fix the notation:
B1: SEQ ID NO 71 (peptide)
peptide: H[Aib]EGS[αMeF]TSDV[αMeS]S[αMeF]LEGEAA[αMeK]E[αMeF]IA[αMeF]VV[αMeK]K([γGlu-Palmitoyl])G-NH2
modifications: N-terminus assumed
SMILES: CCCCCCCCCCCCCCCC(=O)N[C@@H](CCC(=O)NCCCC[C@H](NC(=O)[C@](C)(CCCCN)NC(=O)[C@@H](NC(=O)[C@@H](NC(=O)[C@](C)(Cc1ccccc1)NC(=O)[C@H](C)NC(=O)[C@@H](NC(=O)[C@](C)(Cc1ccccc1)NC(=O)[C@H](CCC(=O)O)NC(=O)[C@](C)(CCCCN)NC(=O)[C@H](C)NC(=O)[C@H](C)NC(=O)[C@H](CCC(=O)O)NC(=O)CNC(=O)[C@H](CCC(=O)O)NC(=O)[C@H](CC(C)C)NC(=O)[C@](C)(Cc1ccccc1)NC(=O)[C@H](CO)NC(=O)[C@](C)(CO)NC(=O)[C@@H](NC(=O)[C@H](CC(=O)O)NC(=O)[C@H](CO)NC(=O)[C@@H](NC(=O)[C@](C)(Cc1ccccc1)NC(=O)[C@H](CO)NC(=O)CNC(=O)[C@H](CCC(=O)O)NC(=O)C(C)(C)NC(=O)[C@@H](N)Cc1c[nH]cn1)[C@@H](C)O)C(C)C)[C@@H](C)CC)C(C)C)C(C)C)C(=O)NCC(N)=O)C(=O)O
B2: SEQ ID NO 75 (peptide)
peptide: H[Aib]EGS[αMeF]TSDV[αMeS]S[αMeF]LEGEAA[αMeK]E[αMeF]IAK([γGlu-Palmitoyl])VV[αMeK]GG-NH2
modifications: N-terminus assumed
SMILES: CCCCCCCCCCCCCCCC(=O)N[C@@H](CCC(=O)NCCCC[C@H](NC(=O)[C@H](C)NC(=O)[C@@H](NC(=O)[C@](C)(Cc1ccccc1)NC(=O)[C@H](CCC(=O)O)NC(=O)[C@](C)(CCCCN)NC(=O)[C@H](C)NC(=O)[C@H](C)NC(=O)[C@H](CCC(=O)O)NC(=O)CNC(=O)[C@H](CCC(=O)O)NC(=O)[C@H](CC(C)C)NC(=O)[C@](C)(Cc1ccccc1)NC(=O)[C@H](CO)NC(=O)[C@](C)(CO)NC(=O)[C@@H](NC(=O)[C@H](CC(=O)O)NC(=O)[C@H](CO)NC(=O)[C@@H](NC(=O)[C@](C)(Cc1ccccc1)NC(=O)[C@H](CO)NC(=O)CNC(=O)[C@H](CCC(=O)O)NC(=O)C(C)(C)NC(=O)[C@@H](N)Cc1c[nH]cn1)[C@@H](C)O)C(C)C)[C@@H](C)CC)C(=O)N[C@H](C(=O)N[C@H](C(=O)N[C@@](C)(CCCCN)C(=O)NCC(=O)NCC(N)=O)C(C)C)C(C)C)C(=O)O
B3: SEQ ID NO 72 (peptide)
peptide: H[Aib]EGS[αMeF]TSDV[αMeS]S[αMeF]LEGEAA[αMeK]E[αMeF]IA[αMeF]VVK([γGlu-Palmitoyl])GG-NH2
modifications: N-terminus assumed
SMILES: CCCCCCCCCCCCCCCC(=O)N[C@@H](CCC(=O)NCCCC[C@H](NC(=O)[C@@H](NC(=O)[C@@H](NC(=O)[C@](C)(Cc1ccccc1)NC(=O)[C@H](C)NC(=O)[C@@H](NC(=O)[C@](C)(Cc1ccccc1)NC(=O)[C@H](CCC(=O)O)NC(=O)[C@](C)(CCCCN)NC(=O)[C@H](C)NC(=O)[C@H](C)NC(=O)[C@H](CCC(=O)O)NC(=O)CNC(=O)[C@H](CCC(=O)O)NC(=O)[C@H](CC(C)C)NC(=O)[C@](C)(Cc1ccccc1)NC(=O)[C@H](CO)NC(=O)[C@](C)(CO)NC(=O)[C@@H](NC(=O)[C@H](CC(=O)O)NC(=O)[C@H](CO)NC(=O)[C@@H](NC(=O)[C@](C)(Cc1ccccc1)NC(=O)[C@H](CO)NC(=O)CNC(=O)[C@H](CCC(=O)O)NC(=O)C(C)(C)NC(=O)[C@@H](N)Cc1c[nH]cn1)[C@@H](C)O)C(C)C)[C@@H](C)CC)C(C)C)C(C)C)C(=O)NCC(=O)NCC(N)=O)C(=O)O
B4: SEQ ID NO 74 (peptide)
peptide: H[Aib]EGS[αMeF]TSDV[αMeS]S[αMeF]LEGEAA[αMeK]E[αMeF]IA[αMeF]K([γGlu-Palmitoyl])V[αMeK]GG-NH2
modifications: N-terminus assumed
SMILES: CCCCCCCCCCCCCCCC(=O)N[C@@H](CCC(=O)NCCCC[C@H](NC(=O)[C@](C)(Cc1ccccc1)NC(=O)[C@H](C)NC(=O)[C@@H](NC(=O)[C@](C)(Cc1ccccc1)NC(=O)[C@H](CCC(=O)O)NC(=O)[C@](C)(CCCCN)NC(=O)[C@H](C)NC(=O)[C@H](C)NC(=O)[C@H](CCC(=O)O)NC(=O)CNC(=O)[C@H](CCC(=O)O)NC(=O)[C@H](CC(C)C)NC(=O)[C@](C)(Cc1ccccc1)NC(=O)[C@H](CO)NC(=O)[C@](C)(CO)NC(=O)[C@@H](NC(=O)[C@H](CC(=O)O)NC(=O)[C@H](CO)NC(=O)[C@@H](NC(=O)[C@](C)(Cc1ccccc1)NC(=O)[C@H](CO)NC(=O)CNC(=O)[C@H](CCC(=O)O)NC(=O)C(C)(C)NC(=O)[C@@H](N)Cc1c[nH]cn1)[C@@H](C)O)C(C)C)[C@@H](C)CC)C(=O)N[C@H](C(=O)N[C@@](C)(CCCCN)C(=O)NCC(=O)NCC(N)=O)C(C)C)C(=O)O

Starred links: 1 amine or outer side, 2 acyl side, 3 side chain; linkers in the order of their positions; H or OH if unused. Non-standard residues stand in square brackets, D forms with d. Groups on a side chain read outwards from the residue. Primed or numbered codes have the meaning given here. No end group written: not given here. *: point of attachment. γGlu = O=C(O)[C@H](CCC(=O)[*:2])N[*:1]; Stearoyl = CCCCCCCCCCCCCCCCCC(=O)*; Palmitoyl = CCCCCCCCCCCCCCCC(=O)*; αMeF = C[C@](N)(Cc1ccccc1)C(=O)O; αMeK = C[C@](N)(CCCCN)C(=O)O; αMeS = C[C@](N)(CO)C(=O)O; PEG2′ = not defined here; Aib = CC(C)(N)C(=O)O

This assay addresses T1, GLP-1R (INS1e assay) (UniProt P32301 22-463, limits assumed).
T1 sequence (looked up): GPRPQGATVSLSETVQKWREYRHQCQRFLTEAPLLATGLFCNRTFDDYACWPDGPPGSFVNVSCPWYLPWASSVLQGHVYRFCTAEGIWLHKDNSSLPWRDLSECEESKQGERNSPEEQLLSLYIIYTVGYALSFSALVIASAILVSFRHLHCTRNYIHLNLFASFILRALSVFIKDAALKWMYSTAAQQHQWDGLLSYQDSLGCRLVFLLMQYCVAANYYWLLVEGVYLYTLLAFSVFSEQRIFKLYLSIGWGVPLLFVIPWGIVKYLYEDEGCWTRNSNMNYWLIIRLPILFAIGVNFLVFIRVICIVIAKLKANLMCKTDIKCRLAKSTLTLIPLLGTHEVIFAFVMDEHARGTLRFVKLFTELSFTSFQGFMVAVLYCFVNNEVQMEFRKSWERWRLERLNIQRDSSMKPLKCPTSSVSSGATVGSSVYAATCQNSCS
Kind of assay: cell-based or functional assay.
In the case of H[Aib]EGS[αMeF]TSDV[αMeS]S[αMeF]LEGEAAAEFIK([PEG2′-PEG2′-γGlu-Stearoyl])WVVEGG-NH2 [SEQ ID NO 69], the “INS1e assay EC50 GLP-1 R n1” value came to 19.2 nM, the “INS1e assay EC50 GLP-1 R n2” value was found to be 25 nM and the “INS1e assay EC50 Mean pM GLP-1R” value was 22100 pM.
As for B1, the “INS1e assay EC50 GLP-1 R n1” value was determined as 0.604 nM, the “INS1e assay EC50 GLP-1 R n2” value worked out at 0.841 nM and the “INS1e assay EC50 Mean pM GLP-1R” value is 723 pM.
As for H[Aib]EGS[αMeF]TSDVSK([PEG2′-PEG2′-PEG2′-Stearoyl])YLEGEAAEE[αMeF]IA[αMeF]VVEGG-NH2 [SEQ ID NO 62], the “INS1e assay EC50 GLP-1 R n1” value is 0.209 nM, the “INS1e assay EC50 GLP-1 R n2” value amounted to 0.0837 nM and the “INS1e assay EC50 Mean pM GLP-1R” value was found to be 146 pM.
On to H[Aib]EGS[αMeF]TSDV[αMeS]S[αMeF]LEGEAA[Aib]EFIK([PEG2′-PEG2′-γGlu-Stearoyl])WVVEGG-NH2 [SEQ ID NO 67], for which the “INS1e assay EC50 GLP-1 R n1” value was 6.15 nM, the “INS1e assay EC50 GLP-1 R n2” value was found to be 18.1 nM and the “INS1e assay EC50 Mean pM GLP-1R” value was determined as 12100 pM.
For B2, in that order: 0.0497 nM, 0.063 nM and 56 pM.
As for H[Aib]EGS[αMeF]TSDV[αMeS]S[αMeF]LEGEAAK([PEG2′-PEG2′-PEG2′-Stearoyl])E[αMeF]IAWVV[αMeK]GG-NH2 [SEQ ID NO 55], the “INS1e assay EC50 GLP-1 R n1” value stood at 0.0125 nM, the “INS1e assay EC50 GLP-1 R n2” value stood at 0.0101 nM and the “INS1e assay EC50 Mean pM GLP-1R” value amounted to 11 pM.
Turning to H[Aib]EGS[αMeF]TSDVSK([PEG2′-PEG2′-PEG2′-Stearoyl])YLEGEAA[αMeK]E[αMeF]IA[αMeF]VVEGG-NH2 [SEQ ID NO 64], the “INS1e assay EC50 GLP-1 R n1” value was found to be 0.0068 nM, the “INS1e assay EC50 GLP-1 R n2” value was 0.0121 nM and the “INS1e assay EC50 Mean pM GLP-1R” value was determined as 9 pM.
B3: the “INS1e assay EC50 GLP-1 R n1” value was found to be 4.26 nM, the “INS1e assay EC50 GLP-1 R n2” value was found to be 8.07 nM and the “INS1e assay EC50 Mean pM GLP-1R” value is 6160 pM.
With H[Aib]EGS[αMeF]TSDV[αMeS]S[αMeF]LEGEAAKEFIK([PEG2′-PEG2′-γGlu-Stearoyl])WVVEGG-NH2 [SEQ ID NO 65], the “INS1e assay EC50 GLP-1 R n1” value came out at 2.57 nM, the “INS1e assay EC50 GLP-1 R n2” value came to 3.74 nM and the “INS1e assay EC50 Mean pM GLP-1R” value was determined as 3160 pM.
For H[Aib]EGS[αMeF]TSDV[αMeS]S[αMeF]LEGEAAK([PEG2′-PEG2′-PEG2′-Stearoyl])E[αMeF]IA[αMeF]VVKGG-NH2 [SEQ ID NO 56], in that order: 0.0352 nM, 0.077 nM and 56 pM.
For H[Aib]EGS[αMeF]TSDVSK([PEG2′-PEG2′-γGlu-Stearoyl])YLEGEAA[αMeK]E[αMeF]IA[αMeF]VVEGG-NH2 [SEQ ID NO 60], in that order: 14.3 nM, 12.1 nM and 13200 pM.
Take B4: the “INS1e assay EC50 GLP-1 R n1” value came out at 0.0774 nM, the “INS1e assay EC50 GLP-1 R n2” value turned out to be 0.127 nM and the “INS1e assay EC50 Mean pM GLP-1R” value was 102 pM.
On to H[Aib]EGS[αMeF]TSDVSK([PEG2′-PEG2′-PEG2′-Stearoyl])YLEGEAAKE[αMeF]IA[αMeF]VVEGG-NH2 [SEQ ID NO 61], for which the “INS1e assay EC50 GLP-1 R n1” value is 0.00557 nM, the “INS1e assay EC50 GLP-1 R n2” value turned out to be 0.0135 nM and the “INS1e assay EC50 Mean pM GLP-1R” value was 10 pM.
As to H[Aib]EGS[αMeF]TSDVSK([PEG2′-PEG2′-PEG2′-Stearoyl])YLEGEAA[Aib]E[αMeF]IA[αMeF]VVEGG-NH2 [SEQ ID NO 63], the “INS1e assay EC50 GLP-1 R n1” value came to 0.0231 nM, the “INS1e assay EC50 GLP-1 R n2” value was determined as 0.0392 nM and the “INS1e assay EC50 Mean pM GLP-1R” value stood at 31 pM.
Consider H[Aib]EGS[αMeF]TSDV[αMeS]S[αMeF]LEGEAA[αMeK]EFIK([PEG2′-PEG2′-γGlu-Stearoyl])WVVEGG-NH2 [SEQ ID NO 68], for which the “INS1e assay EC50 GLP-1 R n1” value amounted to 2.69 nM, the “INS1e assay EC50 GLP-1 R n2” value amounted to 4.87 nM and the “INS1e assay EC50 Mean pM GLP-1R” value was 3780 pM.
For H[Aib]EGS[αMeF]TSDV[αMeS]S[αMeF]LEGEAAEEFIK([PEG2′-PEG2′-γGlu-Stearoyl])WVVEGG-NH2 [SEQ ID NO 66], in that order: 45.6 nM, 38.8 nM and 42200 pM.

The record behind these values is patent US20200079833A1 (AstraZeneca / MedImmune, published 2020).
